Peptide text beside a SMILES is read from it.
How the values were obtained:
[1] = molecular target: His-tagged Spike RBD protein (SARS-CoV-2) (UniProt P0DTC2); experiment: BLI
[2] = Peptide stability in human serum; conditions: human serum (50% v/v) from a healthy donor

Molecule	Kd [1]	half-life at 1 mM [2]
tripeptide TLH	22.8 µM	–
CC(C)C[C@H](NC(=O)[C@@H](N)[C@@H](C)O)C(=O)N[C@@H](Cc1c[nH]cn1)C(N)=O [TLH] (H-Thr-Leu-His-NH2)	–	4.36 h
tripeptide VFI	28.4 µM	–
CC[C@H](C)[C@H](NC(=O)[C@H](Cc1ccccc1)NC(=O)[C@@H](N)C(C)C)C(N)=O [VFI] (H-Val-Phe-Ile-NH2)	–	12.4 h
